According to US20230250154A1 (CYTONICS, published 2023):
Values belong to the binder of their own block, whether it stands above or below them.

Experiments:
Assay in all cases: cell-based or functional assay
[1] = target: Elastase
[2] = target: T1, Cathepsin G (UniProt P08311 21-244)
T1 sequence (looked up): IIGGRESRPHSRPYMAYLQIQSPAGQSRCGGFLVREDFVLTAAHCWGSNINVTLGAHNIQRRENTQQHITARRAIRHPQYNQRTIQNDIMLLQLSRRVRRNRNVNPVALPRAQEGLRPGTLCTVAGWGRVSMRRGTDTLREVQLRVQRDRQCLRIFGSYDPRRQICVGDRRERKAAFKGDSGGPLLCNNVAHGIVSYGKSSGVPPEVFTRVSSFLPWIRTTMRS

[3] = target: T2, MMP1 (human, UniProt P03956 100-469, limits assumed)
T2 sequence (looked up): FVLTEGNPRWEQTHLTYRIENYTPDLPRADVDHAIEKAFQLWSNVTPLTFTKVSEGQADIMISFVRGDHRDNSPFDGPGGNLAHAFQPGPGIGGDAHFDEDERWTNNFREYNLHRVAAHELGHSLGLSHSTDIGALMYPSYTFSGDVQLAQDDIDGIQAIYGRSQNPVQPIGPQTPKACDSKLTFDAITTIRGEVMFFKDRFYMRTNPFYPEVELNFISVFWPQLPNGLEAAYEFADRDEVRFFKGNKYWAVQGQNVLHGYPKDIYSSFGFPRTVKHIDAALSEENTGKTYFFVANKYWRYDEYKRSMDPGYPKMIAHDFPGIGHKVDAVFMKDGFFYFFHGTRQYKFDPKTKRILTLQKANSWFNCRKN

Protease Inhibition (% of WT) [1]: 300 % of WT
Protease Inhibition (% of WT) [2]: 200 % of WT
Protease Inhibition (% of WT) [3]: 300 % of WT
B1: Variant A2M, bait region SEQ ID NO 131 (other)
chain: SVSGKPQYMVLVPSLLHTETTEKGCVLLSYLNETVTVSASLESVRGNRSLFTDLEAENDVLHCVAFAVPKSSSNEEVMFLTVQVKGPTQEFKKRTTVMVKNEDSLVFVQTDKSIYKPGQTVKFRVVSMDENFHPLNELIPLVYIQDPKGNRIAQWQSFQLEGGLKQFSFPLSSEPFQGSYKVVVQKKSGGRTEHPFTVEEFVLPKFEVQVTVPKIITILEEEMNVSVCGLYTYGKPVPGHVTVSICRKYSDASDCHGEDSQAFCEKFSGQLNSHGCFYQQVKTKVFQLKRKEYEMKLHTEAQIQEEGTVVELTGRQSSEITRTITKLSFVKVDSHFRQGIPFFGQVRLVDGKGVPIPNKVIFIRGNEANYYSNATTDEHGLVQFSINTTNVMGTSLTVRVNYKDRSPCYGYQWVSEEHEEAHHTAYLVFSPSKSFVHLEPMSHELPCGHTQTVQAHYILNGGTLLGLKKLSFYYLIMAKGGIVRTGTHGLLVKQEDMKGHFSISIPVKSDIAPVARLLIYAVLPTGDVIGDSAKYDVENCLANKVDLSFSPSQSLPASHAHLRVTAAPQSVCALRAVDQSVLLMKPDAELSASSVYNLLPEKDLTGFPGPLNDQDDEDCINRHNVYINGITYTPVSSTNEKDMYSFLEDMGLKAFTNSKIRKPKMCPQLEQYEMHGPEGEGEGEGISEDLVVQIPENFFGVKEEEGLGSVEEPHTKLRKYFPETWIWDLVVVNSAGVAEVGVTVPDTITEWKAGAFCLSEDAGLGISSTASLRAFQPFFVELTMPYSVIRGEAFTLKATVLNYLPKCIRVSVQLEASPAFLAVPVEKEQAPHCICANGRQTVSWAVTPKSLGNVNFTVSAEALESQELCGTEVPSVPEHGRKDTVIKPLLVEPEGLEKETTFNSLLCPSGGEVSEELSLKLPPNVVEESARASVSVLGDILGSAMQNTQNLLQMPYGCGEQNMVLFAPNIYVLDYLNETQQLTPEIKSKAIGYLNTGYQRQLNYKHYDGSYSTFGERYGRNQGNTWLTAFVLKTFAQARAYIFIDEAHITQALIWLSQRQKDNGCFRSSGSLLNNAIKGGVEDEVTLSAYITIALLEIPLTVTHPVVRNALFCLESAWKTAQEGDHGSHVYTKALLAYAFALAGNQDKRKEVLKSLNEEAVKKDNSVHWERPQKPKAPVGHFYEPQAPSAEVEMTSYVLLAYLTAQPAPTSEDLTSATNIVKWITKQQNAQGGFSSTQDTVVALHALSKYGAATFTRTGKAAQVTIQSSGTFSSKFQVDNNNRLLLQQVSLPELPGEYSMKVTGEGCVYLQTSLKYNILPEKEEFPFALGVQTLPQTCDEPKAHTSFQISLSVSYTGSRSASNMAIVDVKMVSGFIPLKPTVKMLERSNHVSRTEVSSNHVLIYLDKVSNQTLSLFFTVLQDVPVRDLKPAIVKVYDYYETDEFAIAEYNAPCSKDLGNADYKDDDDKGASHHHHHH

Protease Inhibition (% of WT) [1]: 350 % of WT
Protease Inhibition (% of WT) [2]: 100 % of WT
Protease Inhibition (% of WT) [3]: 250 % of WT
B2: Variant A2M, bait region SEQ ID NO 133 (other)
chain: SVSGKPQYMVLVPSLLHTETTEKGCVLLSYLNETVTVSASLESVRGNRSLFTDLEAENDVLHCVAFAVPKSSSNEEVMFLTVQVKGPTQEFKKRTTVMVKNEDSLVFVQTDKSIYKPGQTVKFRVVSMDENFHPLNELIPLVYIQDPKGNRIAQWQSFQLEGGLKQFSFPLSSEPFQGSYKVVVQKKSGGRTEHPFTVEEFVLPKFEVQVTVPKIITILEEEMNVSVCGLYTYGKPVPGHVTVSICRKYSDASDCHGEDSQAFCEKFSGQLNSHGCFYQQVKTKVFQLKRKEYEMKLHTEAQIQEEGTVVELTGRQSSEITRTITKLSFVKVDSHFRQGIPFFGQVRLVDGKGVPIPNKVIFIRGNEANYYSNATTDEHGLVQFSINTTNVMGTSLTVRVNYKDRSPCYGYQWVSEEHEEAHHTAYLVFSPSKSFVHLEPMSHELPCGHTQTVQAHYILNGGTLLGLKKLSFYYLIMAKGGIVRTGTHGLLVKQEDMKGHFSISIPVKSDIAPVARLLIYAVLPTGDVIGDSAKYDVENCLANKVDLSFSPSQSLPASHAHLRVTAAPQSVCALRAVDQSVLLMKPDAELSASSVYNLLPEKDLTGFPGPLNDQDDEDCINRHNVYINGITYTPVSSTNEKDMYSFLEDMGLKAFTNSKIRKPKMCPQLEQYEMHGPIPENFFGVEGEGEGESELEGRGSSEDLVVQIVEEPHTKLRKYFPETWIWDLVVVNSAGVAEVGVTVPDTITEWKAGAFCLSEDAGLGISSTASLRAFQPFFVELTMPYSVIRGEAFTLKATVLNYLPKCIRVSVQLEASPAFLAVPVEKEQAPHCICANGRQTVSWAVTPKSLGNVNFTVSAEALESQELCGTEVPSVPEHGRKDTVIKPLLVEPEGLEKETTFNSLLCPSGGEVSEELSLKLPPNVVEESARASVSVLGDILGSAMQNTQNLLQMPYGCGEQNMVLFAPNIYVLDYLNETQQLTPEIKSKAIGYLNTGYQRQLNYKHYDGSYSTFGERYGRNQGNTWLTAFVLKTFAQARAYIFIDEAHITQALIWLSQRQKDNGCFRSSGSLLNNAIKGGVEDEVTLSAYITIALLEIPLTVTHPVVRNALFCLESAWKTAQEGDHGSHVYTKALLAYAFALAGNQDKRKEVLKSLNEEAVKKDNSVHWERPQKPKAPVGHFYEPQAPSAEVEMTSYVLLAYLTAQPAPTSEDLTSATNIVKWITKQQNAQGGFSSTQDTVVALHALSKYGAATFTRTGKAAQVTIQSSGTFSSKFQVDNNNRLLLQQVSLPELPGEYSMKVTGEGCVYLQTSLKYNILPEKEEFPFALGVQTLPQTCDEPKAHTSFQISLSVSYTGSRSASNMAIVDVKMVSGFIPLKPTVKMLERSNHVSRTEVSSNHVLIYLDKVSNQTLSLFFTVLQDVPVRDLKPAIVKVYDYYETDEFAIAEYNAPCSKDLGNADYKDDDDKGASHHHHHH

Protease Inhibition (% of WT) [1]: 300 % of WT
Protease Inhibition (% of WT) [2]: 100 % of WT
Protease Inhibition (% of WT) [3]: 300 % of WT
B3: Variant A2M, bait region SEQ ID NO 135 (other)
chain: SVSGKPQYMVLVPSLLHTETTEKGCVLLSYLNETVTVSASLESVRGNRSLFTDLEAENDVLHCVAFAVPKSSSNEEVMFLTVQVKGPTQEFKKRTTVMVKNEDSLVFVQTDKSIYKPGQTVKFRVVSMDENFHPLNELIPLVYIQDPKGNRIAQWQSFQLEGGLKQFSFPLSSEPFQGSYKVVVQKKSGGRTEHPFTVEEFVLPKFEVQVTVPKIITILEEEMNVSVCGLYTYGKPVPGHVTVSICRKYSDASDCHGEDSQAFCEKFSGQLNSHGCFYQQVKTKVFQLKRKEYEMKLHTEAQIQEEGTVVELTGRQSSEITRTITKLSFVKVDSHFRQGIPFFGQVRLVDGKGVPIPNKVIFIRGNEANYYSNATTDEHGLVQFSINTTNVMGTSLTVRVNYKDRSPCYGYQWVSEEHEEAHHTAYLVFSPSKSFVHLEPMSHELPCGHTQTVQAHYILNGGTLLGLKKLSFYYLIMAKGGIVRTGTHGLLVKQEDMKGHFSISIPVKSDIAPVARLLIYAVLPTGDVIGDSAKYDVENCLANKVDLSFSPSQSLPASHAHLRVTAAPQSVCALRAVDQSVLLMKPDAELSASSVYNLLPEKDLTGFPGPLNDQDDEDCINRHNVYINGITYTPVSSTNEKDMYSFLEDMGLKAFTNSKIRKPKMCPQLEQYEMHGPIPENFFGVSELEGRGSSEDLVVQIKEEEGLGSVEEPHTKLRKYFPETWIWDLVVVNSAGVAEVGVTVPDTITEWKAGAFCLSEDAGLGISSTASLRAFQPFFVELTMPYSVIRGEAFTLKATVLNYLPKCIRVSVQLEASPAFLAVPVEKEQAPHCICANGRQTVSWAVTPKSLGNVNFTVSAEALESQELCGTEVPSVPEHGRKDTVIKPLLVEPEGLEKETTFNSLLCPSGGEVSEELSLKLPPNVVEESARASVSVLGDILGSAMQNTQNLLQMPYGCGEQNMVLFAPNIYVLDYLNETQQLTPEIKSKAIGYLNTGYQRQLNYKHYDGSYSTFGERYGRNQGNTWLTAFVLKTFAQARAYIFIDEAHITQALIWLSQRQKDNGCFRSSGSLLNNAIKGGVEDEVTLSAYITIALLEIPLTVTHPVVRNALFCLESAWKTAQEGDHGSHVYTKALLAYAFALAGNQDKRKEVLKSLNEEAVKKDNSVHWERPQKPKAPVGHFYEPQAPSAEVEMTSYVLLAYLTAQPAPTSEDLTSATNIVKWITKQQNAQGGFSSTQDTVVALHALSKYGAATFTRTGKAAQVTIQSSGTFSSKFQVDNNNRLLLQQVSLPELPGEYSMKVTGEGCVYLQTSLKYNILPEKEEFPFALGVQTLPQTCDEPKAHTSFQISLSVSYTGSRSASNMAIVDVKMVSGFIPLKPTVKMLERSNHVSRTEVSSNHVLIYLDKVSNQTLSLFFTVLQDVPVRDLKPAIVKVYDYYETDEFAIAEYNAPCSKDLGNADYKDDDDKGASHHHHHH
